Biological target: Recombinant human calcineurin, comprising CnAα and CnB subunits (human) (UniProt Q08209)

- CaN phosphatase activity (malachite green, RIIP substrate) in a Ca2+/CM cross-titration; CaN:CM ratio that gives 50% activation at 500 μM Ca2+ (molar ratio (CaN:CM)): 1
Substance: calmodulin (from UniProt P0DP23 1-149) (natural protein)
